Source: PMC6642173, “Acetylation regulates ribonucleotide reductase activity and cancer cell growth” (Nature Communications, 2019)

Molecular target: the molecule itself
Assay: cross-linking; purified recombinant RRM2 proteins cross-linked with 2 mM disuccinimidylsuberate (DSS), SDS-PAGE

Protein	stoichiometry N
Recombinant His6-tagged WT RRM2 (natural protein, human, UniProt P31350 1-389, looked up, RRM2, human; Purification may be described in the Supplementary Methods; also called recombinant RRM2 WT; source: E. coli, purified) MLSLRVPLAPITDPQQLQLSPLKGLSLVDKENTPPALSGTRVLASKTARRIFQEPTEPKTKAAAPGVEDEPLLRENPRRFVIFPIEYHDIWQMYKKAEASFWTAEEVDLSKDIQHWESLKPEERYFISHVLAFFAASDGIVNENLVERFSQEVQITEARCFYGFQIAMENIHSEMYSLLIDTYIKDPKEREFLFNAIETMPCVKKKADWALRWIGDKEATYGERVVAFAAVEGIFFSGSFASIFWLKKRGLMPGLTFSNELISRDEGLHCDFACLMFKHLVHKPSEERVREIIINAVRIEQEFLTEALPVKLIGMNCTLMKQYIEFVADRLMLELGFSKVFRVENPFDFMENISLEGKTNFFEKRVGEYQRMGVMSSPTENSFTLDADF	2
Recombinant K95R RRM2 (natural protein, human, UniProt P31350 1-389, looked up, RRM2, human, with K95R; Probably His6-tagged and made in E. coli like the WT and K95Q proteins; source: recombinant, purified) MLSLRVPLAPITDPQQLQLSPLKGLSLVDKENTPPALSGTRVLASKTARRIFQEPTEPKTKAAAPGVEDEPLLRENPRRFVIFPIEYHDIWQMYRKAEASFWTAEEVDLSKDIQHWESLKPEERYFISHVLAFFAASDGIVNENLVERFSQEVQITEARCFYGFQIAMENIHSEMYSLLIDTYIKDPKEREFLFNAIETMPCVKKKADWALRWIGDKEATYGERVVAFAAVEGIFFSGSFASIFWLKKRGLMPGLTFSNELISRDEGLHCDFACLMFKHLVHKPSEERVREIIINAVRIEQEFLTEALPVKLIGMNCTLMKQYIEFVADRLMLELGFSKVFRVENPFDFMENISLEGKTNFFEKRVGEYQRMGVMSSPTENSFTLDADF	2
